Reference: paper PMC8391968

Molecular target: transcriptional enhancer associated domain (TEAD) transcription factor (human (endogenous in A375)) (UniProt P28347)
UniProt P28347, sequence (P28347 whole entry, the tested form may be a part): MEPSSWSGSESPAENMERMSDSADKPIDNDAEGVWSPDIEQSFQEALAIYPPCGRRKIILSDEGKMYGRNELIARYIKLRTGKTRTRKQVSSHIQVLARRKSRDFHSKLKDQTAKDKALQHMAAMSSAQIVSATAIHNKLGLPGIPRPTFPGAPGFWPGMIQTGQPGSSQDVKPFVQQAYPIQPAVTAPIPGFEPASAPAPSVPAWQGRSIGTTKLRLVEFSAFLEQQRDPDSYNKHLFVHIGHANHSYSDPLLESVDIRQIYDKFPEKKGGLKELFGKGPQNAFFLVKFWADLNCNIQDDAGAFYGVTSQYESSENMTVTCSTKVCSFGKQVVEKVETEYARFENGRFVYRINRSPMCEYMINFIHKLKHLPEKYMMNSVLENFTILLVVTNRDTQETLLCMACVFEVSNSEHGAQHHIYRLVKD

- TEAD luciferase reporter (8xGTIIC) in A375 TEAD luciferase-stable melanoma cells, decrease of luciferase expression with the small molecule BY03 at 10 nM to 10 μM: 75%
- TEAD-dependent luciferase reporter (8xGTIIC) in HEK293T cells with ectopic expression of YAP-S127A, decrease of luciferase expression with the small molecule BY03 at 20 μM: 68%
Substance: yes-associated protein (YAP) (from UniProt P46937 1-504) (natural protein)
